In paper doi:10.1101/2020.05.08.079574:
Ends that are not written are not given here.

Legend:
[1] = molecular target: HAdV-5 virion (E1/E3-deleted, replication-defective HAdV-5 vector with eGFP cassette) (human adenovirus 5 (HAdV-5)) (UniProt P04133); assay: co-sedimentation
[2] = molecular target: HAdV-64 virion (E3 deleted, replication-competent HAdV-64 virus with CMV-eGFP ORF, WT HAdV-64 capsid) (human adenovirus 64 (HAdV-64)); assay: co-sedimentation

B1: Human defensin 5 (peptide)
peptide: ATCYCRTGRCATRESLSGVCEISGRLYRLCCR
modifications: disulfide (positions not given here); also: oxidatively folded
Question: Which results are given for B1?
Answer: stoichiometry N (molecules of HD5 per virion) [1]: 7090; fold less HD5 bound per virion than to HAdV-5 at 20 µM HD5 [2]: 83 fold
